Experimental data taken from patent US20240301071A1 (Alector, published 2024).

Key:
soluble human FcgR1 = target: T1, soluble human FcgR1 (human, UniProt P12314 16-288); experiment: BLI (Octet RED96), antibody captured by anti-human Fab-CH1, 100 nM soluble human FcR
T1 construct: also called FcγRI; CD64
Description: (§1) FcR affinity measurements for anti-SIRPA antibody Fc variants were obtained using bio-layer interferometry (BLI) on a Pall ForteBio Octet RED96 instrument. […] Single cycle kinetics were performed with 100 nM of soluble human FcRs flowed over captured antibody to record traces (300 s association time, 300 s dissociation time). Data analysis was performed using ForteBio Data Analysis Software, version 9.0. Standard kinetic buffer (PBS, 0.1% BSA, 0.02% Tween-20, pH 7.2) was used for the assay and for preparing reagents.

[1] = target: human SIRPA on human macrophages (primary monocyte-derived macrophages; U937 line) (human, UniProt P78324 31-504); experiment: cell-based or functional assay
Sequence of human SIRPA on human macrophages (primary monocyte-derived macrophages; U937 line) (P78324 31-370): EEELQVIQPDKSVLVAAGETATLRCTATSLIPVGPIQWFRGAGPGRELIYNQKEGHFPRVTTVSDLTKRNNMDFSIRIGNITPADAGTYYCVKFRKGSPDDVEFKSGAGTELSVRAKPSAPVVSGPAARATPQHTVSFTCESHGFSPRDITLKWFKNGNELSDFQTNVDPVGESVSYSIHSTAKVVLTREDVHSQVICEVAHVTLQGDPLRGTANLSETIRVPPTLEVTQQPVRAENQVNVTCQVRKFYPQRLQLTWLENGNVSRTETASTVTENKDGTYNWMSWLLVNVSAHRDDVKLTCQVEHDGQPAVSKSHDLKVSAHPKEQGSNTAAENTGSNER

[2] = target: T2, soluble human FcgR2A H131 (human, UniProt P12318 36-218); experiment: BLI (Octet RED96), antibody captured by anti-human Fab-CH1, soluble human FcR
T2 construct: also called CD32A-H131
T2 sequence (looked up): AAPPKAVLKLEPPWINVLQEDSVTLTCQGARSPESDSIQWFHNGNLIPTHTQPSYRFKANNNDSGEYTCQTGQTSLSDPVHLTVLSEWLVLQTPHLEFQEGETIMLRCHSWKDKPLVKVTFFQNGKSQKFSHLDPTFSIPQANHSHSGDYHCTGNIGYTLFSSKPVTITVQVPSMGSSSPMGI
Description: as §1

soluble human FcgR2B = target: T3, soluble human FcgR2B (human, UniProt P31994 46-217); experiment: as above
T3 construct: also called CD32B
T3 sequence (looked up): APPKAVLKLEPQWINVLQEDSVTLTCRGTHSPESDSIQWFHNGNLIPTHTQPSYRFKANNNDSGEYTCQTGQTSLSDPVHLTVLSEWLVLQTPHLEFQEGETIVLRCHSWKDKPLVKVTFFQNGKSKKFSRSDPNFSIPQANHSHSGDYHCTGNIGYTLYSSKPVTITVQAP
Description: as §1

[3] = target: T4, soluble human FcgR3A F158 (human, UniProt P08637 17-208); experiment: as above
T4 construct: also called CD16A F158
T4 sequence (P08637 17-208 limits assumed): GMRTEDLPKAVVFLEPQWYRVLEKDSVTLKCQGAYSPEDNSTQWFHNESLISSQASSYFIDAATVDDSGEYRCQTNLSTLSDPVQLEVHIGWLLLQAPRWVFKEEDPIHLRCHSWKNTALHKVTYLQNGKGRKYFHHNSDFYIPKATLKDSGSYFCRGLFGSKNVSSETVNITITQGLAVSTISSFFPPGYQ
Description: as §1

[4] = target: T5, soluble human FcgR2A R131 (human, UniProt P12318 36-218); experiment: as above
T5 construct: also called CD32A-R131
T5 sequence (looked up): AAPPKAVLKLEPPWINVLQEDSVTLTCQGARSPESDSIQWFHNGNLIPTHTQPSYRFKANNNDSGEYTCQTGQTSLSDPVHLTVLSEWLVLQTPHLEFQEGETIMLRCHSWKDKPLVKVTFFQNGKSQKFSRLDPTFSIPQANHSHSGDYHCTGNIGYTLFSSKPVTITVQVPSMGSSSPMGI
Description: as §1

[5] = target: T6, soluble human FcgR3A V158 (human, UniProt P08637 17-208); experiment: as above
T6 construct: also called CD16A V158
T6 sequence (P08637 17-208 F176V limits assumed): as the sequence (P08637 17-208 limits assumed) above, with F160V counted along it
Description: as §1

T1 sequence (P12314 16-288 limits assumed): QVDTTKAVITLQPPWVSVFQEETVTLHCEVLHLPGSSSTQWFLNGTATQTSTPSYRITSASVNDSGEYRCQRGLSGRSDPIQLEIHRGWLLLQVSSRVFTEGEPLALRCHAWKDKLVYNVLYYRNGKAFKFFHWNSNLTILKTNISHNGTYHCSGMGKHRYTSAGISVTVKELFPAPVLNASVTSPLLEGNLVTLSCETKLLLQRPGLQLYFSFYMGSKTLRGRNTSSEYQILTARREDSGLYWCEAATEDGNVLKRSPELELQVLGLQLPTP

binding result (soluble human FcgR1): binds | IC50 (nM), SIRPA downregulation on human monocyte-derived macrophages [1]: 0.0447 nM | Max % DR, SIRPA, human monocyte-derived macrophages [1]: 41.6% | binding result [2]: no binding (tested: 100 nM) | binding result (soluble human FcgR2B): no binding (tested: 100 nM) | binding result [3]: no binding (tested: 100 nM) | binding result [4]: no binding (tested: 100 nM) | binding result [5]: no binding (tested: 100 nM)
B1: 3F9-22 hIgG1 LALAPS (antibody)
heavy: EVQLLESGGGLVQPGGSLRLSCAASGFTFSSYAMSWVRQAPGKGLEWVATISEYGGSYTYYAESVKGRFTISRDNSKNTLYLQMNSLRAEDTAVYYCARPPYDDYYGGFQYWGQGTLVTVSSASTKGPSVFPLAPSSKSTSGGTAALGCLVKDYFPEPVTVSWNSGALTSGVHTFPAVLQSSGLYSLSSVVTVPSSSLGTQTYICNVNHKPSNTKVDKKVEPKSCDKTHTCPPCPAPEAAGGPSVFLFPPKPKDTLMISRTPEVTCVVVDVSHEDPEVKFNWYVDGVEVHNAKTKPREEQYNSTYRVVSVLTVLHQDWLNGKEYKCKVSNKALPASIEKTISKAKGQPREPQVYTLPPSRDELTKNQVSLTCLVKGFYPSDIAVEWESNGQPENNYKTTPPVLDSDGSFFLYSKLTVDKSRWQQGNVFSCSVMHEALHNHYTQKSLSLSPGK
light: DIQLTQSPSSLSASVGDRVTITCRASKSVSSGGYSYMHWYQQKPGKAPKLLIYLASNLESGVPSRFSGSGSGTDFTLTISSVQPEDFATYYCQHNRELPVTFGQGTKLEIKRTVAAPSVFIFPPSDEQLKSGTASVVCLLNNFYPREAKVQWKVDNALQSGNSQESVTEQDSKDSTYSLSSTLTLSKADYEKHKVYACEVTHQGLSSPVTKSFNRGEC
notes: also called 3F9-22 LALAPS
